Data taken from publication PMC7327521 (Journal of Molecular Biology, 2020).
Positions count from the first letter of the chain named. Square brackets hold non-standard residues; d marks the D form. Ends that are not written are not given here. pY = N[C@@H](Cc1ccc(OP(=O)(O)O)cc1)C(=O)O

How the values were obtained:
Assay in all cases: fluorescence polarisation
[1] = target: T1, Spt6 from S. cerevisiae lacking the first unstructured 297 residues (Spt6ΔN) (S. cerevisiae, UniProt P23615 298-1451)
T1 sequence (looked up): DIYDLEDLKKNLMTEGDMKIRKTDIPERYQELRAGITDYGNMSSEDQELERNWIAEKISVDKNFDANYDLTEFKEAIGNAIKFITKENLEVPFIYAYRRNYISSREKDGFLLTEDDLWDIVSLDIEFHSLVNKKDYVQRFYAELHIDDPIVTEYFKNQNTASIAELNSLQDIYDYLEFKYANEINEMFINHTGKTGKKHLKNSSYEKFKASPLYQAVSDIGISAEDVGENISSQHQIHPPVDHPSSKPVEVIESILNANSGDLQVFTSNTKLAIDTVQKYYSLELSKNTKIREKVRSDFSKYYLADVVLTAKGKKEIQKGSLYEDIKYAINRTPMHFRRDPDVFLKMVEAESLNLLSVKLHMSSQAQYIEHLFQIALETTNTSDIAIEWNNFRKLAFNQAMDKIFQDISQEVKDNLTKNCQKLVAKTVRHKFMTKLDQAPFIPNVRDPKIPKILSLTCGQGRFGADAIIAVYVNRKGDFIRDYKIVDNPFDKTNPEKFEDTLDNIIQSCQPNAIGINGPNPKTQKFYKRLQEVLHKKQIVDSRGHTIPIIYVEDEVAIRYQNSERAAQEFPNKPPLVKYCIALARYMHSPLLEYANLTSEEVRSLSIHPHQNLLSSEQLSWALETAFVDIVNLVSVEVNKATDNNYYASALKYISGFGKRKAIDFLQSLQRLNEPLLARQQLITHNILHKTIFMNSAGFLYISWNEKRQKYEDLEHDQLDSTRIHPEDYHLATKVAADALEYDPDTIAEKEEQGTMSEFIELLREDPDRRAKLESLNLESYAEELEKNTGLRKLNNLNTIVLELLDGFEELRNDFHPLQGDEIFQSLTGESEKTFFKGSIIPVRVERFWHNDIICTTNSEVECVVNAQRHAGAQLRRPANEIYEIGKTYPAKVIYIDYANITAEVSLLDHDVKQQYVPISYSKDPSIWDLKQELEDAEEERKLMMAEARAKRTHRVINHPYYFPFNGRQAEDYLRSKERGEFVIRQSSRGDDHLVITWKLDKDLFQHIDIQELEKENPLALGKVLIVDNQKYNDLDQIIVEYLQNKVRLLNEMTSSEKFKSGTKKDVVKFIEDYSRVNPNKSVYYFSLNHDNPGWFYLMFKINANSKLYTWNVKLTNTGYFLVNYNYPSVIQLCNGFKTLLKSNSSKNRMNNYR

Spt6-tSH2 K1360A = target: T2, Spt6-tSH2 K1360A (C. glabrata, UniProt Q6FLB1 1250-1444, K1360A)
T2 sequence (looked up): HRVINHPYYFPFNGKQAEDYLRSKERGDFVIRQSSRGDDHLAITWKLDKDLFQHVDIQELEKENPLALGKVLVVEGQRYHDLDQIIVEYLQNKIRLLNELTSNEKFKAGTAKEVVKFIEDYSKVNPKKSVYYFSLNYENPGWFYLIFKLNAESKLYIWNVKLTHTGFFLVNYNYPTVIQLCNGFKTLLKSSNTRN

Spt6-tSH2 R1281A/R1285A = target: T3, Spt6-tSH2 R1281A/R1285A (C. glabrata, UniProt Q6FLB1 1250-1444, R1281A | R1285A)
T3 sequence (looked up): T2 sequence (looked up) with R32A, R36A, A111K

Spt6-tSH2 K1434A = target: T4, Spt6-tSH2 K1434A (C. glabrata, UniProt Q6FLB1 1250-1444, K1434A)
T4 sequence (looked up): T2 sequence (looked up) with A111K, K185A

Spt6-tSH2 R1281A/S1284A = target: T5, Spt6-tSH2 R1281A/S1284A (C. glabrata, UniProt Q6FLB1 1250-1444, R1281A | S1284A)
T5 sequence (looked up): T2 sequence (looked up) with R32A, S35A, A111K

[2] = target: T6, tandem SH2 domain of C. glabrata Spt6 (Spt6-tSH2) (C. glabrata, UniProt Q6FLB1 1250-1444)
T6 sequence (looked up): T2 sequence (looked up) with A111K

B1: (pY1-CTD)2, FAM-labelled tyrosine-phosphorylated CTD diheptad (peptide)
peptide: {5,6‑FAM}-PS[pY]SPTSPS[pY]SPTSPS
Binder B1 has a Kd [1] of 4 ± 0.5 µM, a Kd (Spt6-tSH2 K1360A) of 12.4 µM and a Kd (Spt6-tSH2 R1281A/R1285A) of 11.6 µM. The Kd (Spt6-tSH2 K1434A) was 24 µM, the Kd (Spt6-tSH2 R1281A/S1284A) was 11.4 µM and the Kd [2] was 5.1 µM.
